Data as given in article PMC9628839, “Structure Based Protein Engineering of Aldehyde Dehydrogenase from Azospirillum brasilense to Enhance Enzyme Activity against Unnatural 3-Hydroxypropionaldehyde” (Journal of Microbiology and Biotechnology, 2021).
Positions count from the first letter of the chain named. In names and notes the source's numbering stands.

B1: AbKGSADH (Azospirillum brasilense; P444F) (protein)
chain: ANVTYTDTQLLIDGEWVDAASGKTIDVVNPATGKPIGRVAHAGIADLDRALAAAQSGFEAWRKVPAHERAATMRKAAALVRERADAIAQLMTQEQGKPLTEARVEVLSAADIIEWFADEGRRVYGRIVPPRNLGAQQTVVKEPVGPVAAFTPWNFPVNQVVRKLSAALATGCSFLVKAPEETPASPAALLRAFVDAGVPAGVIGLVYGDPAEISSYLIPHPVIRKVTFTGSTPVGKQLASLAGLHMKRATMELGGHAPVIVAEDADVALAVKAAGGAKFRNAGQVCISPTRFLVHNSIRDEFTRALVKHAEGLKVGNGLEEGTTLGALANPRRLTAMASVIDNARKVGASIETGGERIGSEGNFFAPTVIANVPLDADVFNNEPFGPVAAIRGFDKLEEAIAEANRLPFGLAGYAFTRSFANVHLLTQRLEVGMLWINQPATFWPEMPFGGVKDSGYGSEGGPEALEPYLVTKSVTVMAV
B2: AbKGSADH (Azospirillum brasilense; P444G) (protein)
chain: B1 chain with F443G
B3: AbKGSADH (Azospirillum brasilense; P444L) (protein)
chain: B1 chain with F443L
B4: AbKGSADH (Azospirillum brasilense; P444S) (protein)
chain: B1 chain with F443S
B5: AbKGSADH (Azospirillum brasilense) (protein)
chain: B1 chain with F443P
B6: AbKGSADH (Azospirillum brasilense; S109G) (protein)
chain: B1 chain with S108G, F443P
B7: AbKGSADH (Azospirillum brasilense; S109L) (protein)
chain: B1 chain with S108L, F443P
B8: AbKGSADH (Azospirillum brasilense; R281Y) (protein)
chain: B1 chain with R280Y, F443P
B9: AbKGSADH (Azospirillum brasilense; R281F) (protein)
chain: B1 chain with R280F, F443P
B10: AbKGSADH (Azospirillum brasilense; R281Q) (protein)
chain: B1 chain with R280Q, F443P
B11: AbKGSADH (Azospirillum brasilense; I288T) (protein)
chain: B1 chain with I287T, F443P

These proteins were tested on O=CCCO (assay: purified protein). Conditions: 500 μM NAD, 100 mM Tris-HCl pH 8.0, 25 °C, 50 nM enzyme, 0.5-10 mM 3HPA.
Assay type: biochemical, Azospirillum brasilense

Q: With B1 as the protein, how does the Km read?
A: 4.714 ± 0.547 mM

Q: What about the kcat of the same protein?
A: 19.5 ± 1.04 s⁻¹

Q: And the kcat/Km?
A: 4140 M⁻¹ s⁻¹

Q: With B2 as the protein, how does the Km read?
A: 3.512 ± 2.070 mM

Q: And the kcat?
A: 6.59 ± 1.58 s⁻¹

Q: And the kcat/Km?
A: 1880 M⁻¹ s⁻¹

Q: Which results are given for B3?
A: Km: 4.204 ± 1.184 mM; kcat: 18.8 ± 2.36 s⁻¹; kcat/Km: 4480 M⁻¹ s⁻¹

Q: What does the source list for B4?
A: Km: 4.690 ± 2.996 mM; kcat: 17.3 ± 5.1 s⁻¹; kcat/Km: 3700 M⁻¹ s⁻¹

Q: How did the Km turn out when B5 was run?
A: 4.581 ± 0.921 mM

Q: What about the kcat of the same protein?
A: 21.5 ± 1.99 s⁻¹

Q: And the kcat/Km?
A: 4700 M⁻¹ s⁻¹

Q: For B6, which Km is on record?
A: 1.646 ± 0.726 mM

Q: What about the kcat of the same protein?
A: 6 ± 0.877 s⁻¹

Q: And the kcat/Km?
A: 3640 M⁻¹ s⁻¹

Q: With B7 as the protein, how does the Km read?
A: 4.156 ± 1.377 mM

Q: And the kcat?
A: 17 ± 2.5 s⁻¹

Q: What about the kcat/Km of the same protein?
A: 4100 M⁻¹ s⁻¹

Q: For B8, which Km is on record?
A: 2.338 ± 0.372 mM

Q: And the kcat?
A: 26.6 ± 1.56 s⁻¹

Q: What about the kcat/Km of the same protein?
A: 11400 M⁻¹ s⁻¹

Q: How did the Km turn out when B9 was run?
A: 3.808 ± 0.728 mM

Q: What about the kcat of the same protein?
A: 21.9 ± 1.8 s⁻¹

Q: What about the kcat/Km of the same protein?
A: 5760 M⁻¹ s⁻¹

Q: B10 was tested. Which Km did it give?
A: 5.764 ± 1.462 mM

Q: What about the kcat of the same protein?
A: 31.5 ± 3.94 s⁻¹

Q: What about the kcat/Km of the same protein?
A: 5470 M⁻¹ s⁻¹

Q: Which results are given for B11?
A: Km: 4.593 ± 2.814 mM; kcat: 6.12 ± 1.69 s⁻¹; kcat/Km: 1330 M⁻¹ s⁻¹
